Experimental findings from patent US20150005230A1, “CYCLODEXTRIN-BASED POLYMERS FOR THERAPEUTIC DELIVERY” (priority 2012, published 2015) are described below.

The series deals with human albumin (Homo sapiens, UniProt P02768). As to the kind of experiment: Release of CPT in reconstituted human albumin (PBS solution). In kind it is in vitro ADME. Particulars: in the presence of albumin. Here is the method: Samples were stored at −80° C. until the analysis.
Chain of human albumin (P02768 25-609): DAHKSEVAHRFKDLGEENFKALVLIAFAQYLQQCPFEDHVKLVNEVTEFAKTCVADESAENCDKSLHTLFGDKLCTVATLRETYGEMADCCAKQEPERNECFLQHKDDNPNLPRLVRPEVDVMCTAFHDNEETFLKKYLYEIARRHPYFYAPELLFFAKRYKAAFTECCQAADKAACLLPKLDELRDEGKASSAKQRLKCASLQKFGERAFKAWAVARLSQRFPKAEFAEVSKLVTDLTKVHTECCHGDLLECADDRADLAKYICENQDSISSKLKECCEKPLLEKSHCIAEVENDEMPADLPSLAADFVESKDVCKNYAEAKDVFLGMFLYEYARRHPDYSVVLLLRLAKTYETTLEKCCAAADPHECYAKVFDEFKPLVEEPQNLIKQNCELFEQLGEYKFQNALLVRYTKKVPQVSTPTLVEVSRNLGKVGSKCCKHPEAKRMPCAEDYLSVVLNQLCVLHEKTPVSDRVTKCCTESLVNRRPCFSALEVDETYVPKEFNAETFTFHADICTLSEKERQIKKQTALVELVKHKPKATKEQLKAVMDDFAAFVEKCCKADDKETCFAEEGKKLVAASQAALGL

For the substance Poly(CDDCys-PA-PEG)-Gly-CPT [HG6], the “CPT release rate compared with PBS” value is recorded as “on the same order of magnitude as in PBS”.
In the case of “Poly(CDDCys-PA-PEG)-GlyGlyGly-CPT [HGGG6]”, the “CPT release rate compared with PBS” value is recorded as “on the same order of magnitude as in PBS”.
